Patent US20160030477

Columns and labels:
Experiment in all cases: cell_activity
[1] = system: ZFN 50773 (synthetic); settings: pair 50773/49812, K562, AAV6 donor
[2] = system: ZFN 44271 (synthetic); settings: pair 44298:44271, K562, day 3 (36.6% day 10; GFP 0.2%)
[3] = system: ZFN 44298 (synthetic); settings: pair 44298:44271, K562, day 3 (36.6% day 10; GFP 0.2%)
[4] = system: ZFN 49812 (synthetic); settings: pair 50773/49812, K562, AAV6 donor

Sequence: ATGATAAAGCTGCAAACCCAAAGAAACT (double strand) [RAG1 site 4 (50773)]
- activity (% targeted integration) [1]: 5

Sequence: GCCAGTGGCAGGCACCAGATCTCTGTAC (double strand) [IL2RG 44271 site]
- activity [2]: 42.8 % indels

Sequence: TTACAATCATGTGGGCAGAATTGAAAAG (double strand) [IL2RG 44298 site]
- activity [3]: 42.8 % indels

Sequence: CTTTTATGACCCATTTGGAAGAAATAAA (double strand) [RAG1 site 4 (55002/55005/49812)]
- activity (% targeted integration) [4]: 5
